Protein stability index data for eleven sequences are collected here from the supplement of paper PMC10567573.

± gives the standard deviation.

The data set in a line: protein stability index of a GFP-peptide fusion (GPS, HEK-293T) (PSI 1-6); higher = more stable.
[1] abbreviates: treatment: DMSO, c terminus: a fixed tail appended.
Where [2] appears, read: treatment: MLN4924 1 uM, 8 h, c terminus: a fixed tail appended.
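Also: 24-mer peptide tiles fused after GFP, lentivirally expressed, FACS-sorted into six equal bins by GFP/DsRed ratio, decoded by Illumina sequencing, PSI is the read-weighted mean bin number.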

Turning to YLSQTDGAGDWREKEAKDLTELVQ [FUT8], the protein stability index is, setting by setting: under setting [1], 4.52 ± 0.27; under setting [2], 4.7 ± 0.29.
The like results for YPALASKNGKKWEILNFNQYYEAC [ACSBG2] were, in that order, 2.68 ± 0.26 and 2.81 ± 0.41.
For YPRYPDIHDLDLTLLNPRMIVDVT [CLCN6], the protein stability index runs as follows: under setting [1], 2.48 ± 0.14; under setting [2], 2.54 ± 0.22.
The like results for YPWDENHCKEKRKTSLLDQLTNTS [NETO1] were, in that order, 3.94 ± 0.21 and 4.07 ± 0.25.
The like results for YRFHEHWRFVLQRLVFLAAFVVYL [TSN] were, in that order, 2.86 ± 0.37 and 2.8 ± 0.96.
The like results for YRQKKRAEQEALTGECKELEKKNE [ATF4] were, in that order, 5.47 ± 0.24 and 5.59 ± 0.19.
As to YSGAYGASVSDEELKRRVAEELAL [CHCHD3], the protein stability index came out at 3.11 ± 0.52 under setting [1] and 3.53 ± 1.1 under setting [2].
The sequence YTNSAGVPSLNAALMHTLQRHRDI [GOSR1] had a protein stability index under setting [1] of 2.79 ± 0.15 and a protein stability index under setting [2] of 2.92 ± 0.23.
The like results for YVFFEKDFGDMHSYVRSRKRLREE [TRIB1] were, in that order, 2.46 ± 0.59 and 2.66 ± 0.93.
For YVIVSGAQRKEERWDMADNEQVLT [YJU2B] the same measures were 2.88 ± 0.37 and 3.19 ± 0.24.
YWEAWRHHCQGKDLTEWVDGCDF [SPACA3]: the protein stability index by setting is: (treatment: DMSO, c terminus: native) 2.84 ± 0.15; (treatment: MLN4924 1 uM, 8 h, c terminus: native) 3.04 ± 0.25.
